Reference: the supplement of paper PMC10724198
± gives the standard deviation of the averaged measurements.

Tested on: Saccharomyces cerevisiae
Assay: protein stability index of tFT-peptide fusion (C-terminal peptide) (PSI (0-1 scale)); higher = more stable (slower turnover)
Details: genetic background: wild type; temperature: 30 C
Method: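 Multiplexed protein stability (MPS) profiling in S. cerevisiae. Random 12-aa peptides (tFT-X12 library) are fused to the C-terminus of a sfGFP-mCherry tandem fluorescent timer, after mCherry and a GGGS linker. Cells are FACS-sorted into 8 mCherry/sfGFP bins and deep-sequenced. The protein stability index (PSI) is the read-weighted bin average, scaled from 0 (unstable) to 1 (stable). Only peptides with >10 reads are reported; cells were grown at 30 °C in SC-His with glucose.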
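Note: PSI is a weighted mean of sequencing reads over stability bins, variants kept only with over 10 reads, mCherry proximal and sfGFP distal, peptide attached via GGGS linker.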

| Sequence | protein stability index |
| --- | --- |
| PASPFPQTCPPP | 0.737 ± 0.074 |
| FSRLLCPPSFSF | 0.658 ± 0.0072 |
| MRKGNGGGPRRR | 0.728 ± 0.019 |
| GEGRGLCNLVAG | 0.65 ± 0.025 |
| PPGAQPRSPSPL | 0.771 ± 0.08 |
| IHRTSVALFFFP | 0.713 ± 0.034 |
| DRSRESSMSLPD | 0.711 ± 0.0076 |
| PRIPPLRPPPPA | 0.6649 ± 0.0047 |
| DICSNSGRQRFL | 0.685 ± 0.013 |
| PASIVPPPPVPL | 0.777 ± 0.13 |
| GSSVSSVWGGVG | 0.629 ± 0.022 |
| NGRTYIDEESKI | 0.745 ± 0.16 |
| CCPHMLLVLTNI | 0.509 ± 0.011 |
| IYNGMLREEKSL | 0.728 ± 0.017 |
| KKGGKEEPSRRK | 0.741 ± 0.084 |
| PTSPTTSPDHKH | 0.684 ± 0.15 |
| PAIPPPPTAAPT | 0.678 ± 0.087 |
| MRECGLSEARGG | 0.651 ± 0.021 |
| ECVERYLFGEGA | 0.71403 ± 0.00042 |
| AETPRGDTRLHE | 0.699 ± 0.021 |
| VLPGCFSISAPP | 0.7038 ± 0.0062 |
| IPGVPPPRFSIR | 0.704 ± 0.034 |
| VWVVSGRGGWWG | 0.6336 ± 0.0033 |
| PHLPPRPFPTAP | 0.757 ± 0.063 |
| KRKKEKRKEERK | 0.779 ± 0.011 |

| Sequence | protein stability index |
| --- | --- |
| VSRYRQWGSWER | 0.649 ± 0.013 |
| ASYVFVVEGGGG | 0.609 ± 0.018 |
| GMRRGGGGCRGW | 0.716 ± 0.033 |
| GLAASAFAVEEV | 0.711 ± 0.099 |
| PPNPNEPTQTPA | 0.711 ± 0.013 |
| PHATPPPTRPPS | 0.777 ± 0.062 |
| CYIGGEVEFVGW | 0.727 ± 0.0094 |
| IIPEPTKFSRQR | 0.7059 ± 0.0026 |
| LGGSNRPCVRSI | 0.697 ± 0.011 |
| GCFLDLVFRSRI | 0.668 ± 0.0074 |
| PPPQFPRPRPTS | 0.724 ± 0.014 |
| VGRGGGGWRLEG | 0.694 ± 0.078 |
| VFTALALISYMQ | 0.5917 ± 0.0022 |
| LERTTSNKYEER | 0.7234 ± 0.0061 |
| PSPPTPSPPPPP | 0.712 ± 0.062 |
| GRKKLQKKIEEQ | 0.6783 ± 0.0032 |
| LWPLPSASVILL | 0.515 ± 0.12 |
| RGPPCPFPVPLP | 0.74 ± 0.033 |
| KKKKKKKNKKKT | 0.7142 ± 0.00095 |
| EWVYSGDGMGVG | 0.622 ± 0.03 |
| LGEHHKEQEKNV | 0.654 ± 0.023 |
| RTAKTSARATTL | 0.705 ± 0.039 |
| GKNKYIYKKKRH | 0.792 ± 0.072 |
| TLDGEAILVIYI | 0.5944 ± 0.0051 |
| PPPPLPPALFPP | 0.589 ± 0.013 |

| Sequence | protein stability index |
| --- | --- |
| ISSGRRFRAGAE | 0.703 ± 0.046 |
| GGAGGGVWGGGV | 0.735 ± 0.014 |
| GQSQSGIFRTIF | 0.72 ± 0.024 |
| GRSGGEGGGEEE | 0.681 ± 0.029 |
| LVRLRRSLRLFL | 0.539 ± 0.037 |
| PPTPSLPRPPMQ | 0.676 ± 0.014 |
| PSPPPPSALLSP | 0.727 ± 0.066 |
| VCFVGGGGSCRD | 0.635 ± 0.068 |
| GWVHGEDMAVFG | 0.7 ± 0.0049 |
| LKSGRYSYFGSL | 0.734 ± 0.086 |
| LLYLFMSSRFLW | 0.6369 ± 0.003 |
| HFSRNYINENVS | 0.716 ± 0.04 |
| VGGVGEWCLVRL | 0.6746 ± 0.0046 |
| GGGVWQWERGRG | 0.811 ± 0.14 |
| QARHNMVYHEIV | 0.656 ± 0.029 |
| FRRHRHDVLTVR | 0.599 ± 0.05 |
| RGGDIEVPSDQN | 0.705 ± 0.019 |
| SQMCHREESVTV | 0.712 ± 0.004 |
| EGDGLGWGGQGG | 0.67 ± 0.013 |
| FQWAPGIDTVYC | 0.705 ± 0.058 |
| PHPGQSAPPRPP | 0.654 ± 0.038 |
| LYSPPPPPIPSP | 0.7046 ± 0.0067 |
| QKSKSSYPESYV | 0.777 ± 0.062 |
| VVGGVGLGLWKV | 0.659 ± 0.097 |
| AAWGSGMCLCVF | 0.559 ± 0.046 |

| Sequence | protein stability index |
| --- | --- |
| LCGSSVSHLVLP | 0.7125 ± 0.0054 |
| FPLPLPVLSSPS | 0.646 ± 0.15 |
| SPSPSPPPAISI | 0.657 ± 0.015 |
| LPGCGSYLSGNV | 0.651 ± 0.056 |
| GLALSPFPTLSL | 0.64677 ± 0.00031 |
| GSAVLFEFTLKM | 0.651 ± 0.053 |
| YCALVSVGVVGG | 0.542 ± 0.0036 |
| SRSGFWCYLLFL | 0.553 ± 0.039 |
| TGSAIVPHQVPS | 0.653 ± 0.015 |
| GKKEGREAGDRG | 0.691 ± 0.092 |
| TAYPPAPFRRIN | 0.492 ± 0.057 |
| PPPPPTSPPPHP | 0.706 ± 0.032 |
| GEGTERLGKSTR | 0.651 ± 0.046 |
| LEGTGDRFALCG | 0.659 ± 0.023 |
| GILSPSSLVSSL | 0.69 ± 0.057 |
| GGSCGFGLGAGG | 0.665 ± 0.041 |
| NLAVSFIVGGLW | 0.747 ± 0.026 |
| PHPSPGAALFAN | 0.643 ± 0.019 |
| CGISTRYHNRES | 0.696 ± 0.023 |
| VLLRLVGLCQYL | 0.50067 ± 0.0004 |
| DVRLGSQGSFRW | 0.705 ± 0.01 |
| ELRCSRPIHSDF | 0.681 ± 0.013 |
| ASFWLPSNLLPI | 0.7322 ± 0.0013 |
| CLAGLGPADFGM | 0.674 ± 0.057 |
| RSMSQKSRIVSF | 0.67 ± 0.14 |

| Sequence | protein stability index |
| --- | --- |
| SPLHLFHPPLLH | 0.729 ± 0.023 |
| CVRARQLTLCIP | 0.5505 ± 0.0036 |
| GVTGGGVVNRGV | 0.689 ± 0.088 |
| PALPFPPLTAFH | 0.683 ± 0.036 |
| LYGLFRIADVRR | 0.652 ± 0.15 |
| GGGRALEGAAGP | 0.583 ± 0.063 |
| SGPHIAFYTSCP | 0.73 ± 0.053 |
| SNPCLPPPSFAS | 0.77 ± 0.019 |
| QGKNAPERTIKQ | 0.631 ± 0.025 |
| EGSRRQERAGRQ | 0.6668 ± 0.0028 |
| YTSRLGRGILHV | 0.671 ± 0.031 |
| GGGAGGGGRRGR | 0.747 ± 0.01 |
| FPPPPRPSSPLL | 0.693 ± 0.024 |
| EVNYKKRQNKKN | 0.71 ± 0.0066 |
| NKRIRKIKKKCK | 0.701 ± 0.065 |
| IRPSQASSLRKT | 0.634 ± 0.066 |
| GVLRPLVGALGM | 0.609 ± 0.0083 |
| GMWVGGRGVVGV | 0.627 ± 0.0076 |
| LFFSLSLVVPTG | 0.633 ± 0.095 |
| GFRVSVGVVEGG | 0.6716 ± 0.0056 |
| RRRVWIQQRRKI | 0.5481 ± 0.0053 |
| TIIGLVSANEYL | 0.582 ± 0.1 |
| ALSPPSPTPASA | 0.694 ± 0.049 |
| PSCLGSIRSTPL | 0.657 ± 0.02 |
| AWVVVGEGKGWR | 0.717 ± 0.035 |

| Sequence | protein stability index |
| --- | --- |
| PISSYPPLPAPR | 0.718 ± 0.06 |
| PSQRRTPPGLFK | 0.656 ± 0.059 |
| RLRRPSSGPFMF | 0.685 ± 0.037 |
| KRKDGVTAGVEG | 0.712 ± 0.017 |
| GSGVFEASAWGA | 0.679 ± 0.0069 |
| GCRCWGVRVGCV | 0.5407 ± 0.003 |
| LGRLGAFITQPA | 0.671 ± 0.059 |
| AWFCLGGRRGMV | 0.685 ± 0.023 |
| ETKKGKKKKMTM | 0.682 ± 0.0069 |
| ERIKQGKKKRGT | 0.778 ± 0.12 |
| IRQPIPTKVHRL | 0.744 ± 0.045 |
| FSCKRMISKTGF | 0.669 ± 0.035 |
| GGCGGVWGACVV | 0.709 ± 0.023 |
| GGGGKGTSGQGR | 0.688 ± 0.017 |
| RYRDSKPDIVDC | 0.723 ± 0.038 |
| TRSTKIVVEGSG | 0.736 ± 0.085 |
| GLGQGVGGPWAV | 0.678 ± 0.041 |
| CVVVSCVCPFVV | 0.5739 ± 0.0036 |
| TEPHSDQPKKNA | 0.701 ± 0.14 |
| GWAVGGGGGRGR | 0.617 ± 0.057 |
| PYPLSSLSPSRP | 0.702 ± 0.11 |
| KINPQKTEWARR | 0.689 ± 0.024 |
| ISLGGNWHRVVT | 0.649 ± 0.019 |
| PVRFVDGFLSPI | 0.713 ± 0.03 |
| LFALLSGIDRCL | 0.634 ± 0.012 |

| Sequence | protein stability index |
| --- | --- |
| GGGVGASMSGTP | 0.689 ± 0.0069 |
| PPLPPRSISPVL | 0.737 ± 0.11 |
| LSVMLEGLFGLL | 0.662 ± 0.018 |
| PCLGATSNTGRY | 0.732 ± 0.045 |
| AGKVCGVGRLSI | 0.65 ± 0.033 |
| PPPRPPPRPLPP | 0.669 ± 0.024 |
| GVRGVSHMDGGD | 0.758 ± 0.16 |
| PLECHTGVLGRL | 0.709 ± 0.0086 |
| ALRPYDVQVKFR | 0.622 ± 0.038 |
| VCCAQVCICCLR | 0.58 ± 0.017 |
| SPARLRHSLSLP | 0.723 ± 0.014 |
| RVEIKNKKKIRT | 0.696 ± 0.083 |
| PPVPPLRPSCPS | 0.684 ± 0.01 |
| SGWASVCARAAI | 0.745 ± 0.06 |
| PPPPPPPVLSSI | 0.647 ± 0.076 |
| LSPPAPPLLFSP | 0.691 ± 0.035 |
| GFLPVQGQGLVD | 0.688 ± 0.045 |
| PPDPSTLSTSPS | 0.689 ± 0.042 |
| KKKKKKEKGDST | 0.716 ± 0.076 |
| YVWCINSARLVG | 0.587 ± 0.01 |
| GTSPSSVRPLCG | 0.7043 ± 0.0069 |
| PPPAPLALTPSL | 0.71394 ± 0.00049 |
| GKRKREEDEEKK | 0.686 ± 0.097 |
| QKLGNNNAKDLM | 0.66 ± 0.062 |
| SFLPRVVVRSTP | 0.667 ± 0.015 |

| Sequence | protein stability index |
| --- | --- |
| KQSIKKKKIKKT | 0.634 ± 0.017 |
| KTTVENEQRKEK | 0.698 ± 0.079 |
| TGFGVQRKECGT | 0.629 ± 0.0066 |
| PGWGPLVARRFV | 0.735 ± 0.025 |
| TLIPPLLRNALP | 0.713 ± 0.0066 |
| VRAEVSNVDYVS | 0.658 ± 0.0096 |
| GCLDGLGLPCLS | 0.681 ± 0.079 |
| PLPPRLPSPPSS | 0.742 ± 0.044 |
| MGGTGRGGRREI | 0.667 ± 0.04 |
| LLPSPPPPTSLP | 0.728 ± 0.033 |
| FRSRFGPCLRSV | 0.649 ± 0.027 |
| ITRAKGKPEISL | 0.639 ± 0.12 |
| SPEPSFPPLLLP | 0.715 ± 0.015 |
| FKNVTGWLFFCR | 0.702 ± 0.064 |
| IGSLCTPVCQCS | 0.607 ± 0.019 |
| AGCRRGLGMETQ | 0.648 ± 0.012 |
| NRDIYQNWPKRK | 0.831 ± 0.14 |
| ARTILGSFILHP | 0.662 ± 0.049 |
| VRIRRNGAVSFM | 0.6829 ± 0.0038 |
| ARGSRNHRGAGA | 0.738 ± 0.067 |
| GMFVCGVGVVGG | 0.704 ± 0.19 |
